The values that follow come from paper PMC9485058, “Glycosylation of a key cubilin Asn residue results in reduced binding to albumin” (The Journal of Biological Chemistry, 2022).

Substitutions are numbered along the chain they refer to. Names may count otherwise. “And” between values parts separate entries of the source, which are not always exact repeats. Identical values can stand only once.

Sequences and labels used below:
B1: CUB6–8 (cubilin 6–8 domain), glycosylated, not treated with PNGaseF (domain or fragment)
chain: CLYDYTDNFGMLSSPNFPNNYPSNWECIYRITVGLNQQIALHFTDFTLEDYFGSQCVDFVEIRDGGYETSPLVGIYCGSVLPPTIISHSNKLWLKFKSDAALTAKGFSAYWDGSSTGCGGNLTTPTGVLTSPNYPMPYYHSSECYWRLEASHGSPFELEFQDFHLEHHPSCSLDYLAVFDGPTTNSRLIDKLCGDTTPAPIRSNKDVVLLKLRTDAGQQGRGFEINFRQRCDNVVIVNKTSGILESINYPNPYDKNQRCNWTIQATTGNTVNYTFLGFDVESYMNCSTDYVELYDGPQWMGRYCGNNMPPPGATTGSQLHVLFHTDGINSGEKGFKMQWFTHG
modifications: N-glycans as made in 293F cells
B2: PNGaseF-deglycosylated CUB7,8 (domain or fragment, rat, UniProt O70244 1165-1389, looked up)
chain: CGGNLTTPTGVLTSPNYPMPYYHSSECYWRLEASHGSPFELEFQDFHLEHHPSCSLDYLAVFDGPTTNSRLIDKLCGDTTPAPIRSNKDVVLLKLRTDAGQQGRGFEINFRQRCDNVVIVNKTSGILESINYPNPYDKNQRCNWTIQATTGNTVNYTFLGFDVESYMNCSTDYVELYDGPQWMGRYCGNNMPPPGATTGSQLHVLFHTDGINSGEKGFKMQWFTH
modifications: N-glycans removed with PNGaseF
notes: cubilin, rat, CUB7 (1165–1277) and CUB8 (1278–1389) of full length cubilin UniProtKB O70244; also called CUB7,8 after PNGaseF treatment (+); His tagged CUB7,8 domain; not shown: His6, C-terminal, kept
B3: CUB7,8-N1285P, not treated with PNGaseF (domain or fragment, rat, UniProt O70244 1165-1389, looked up)
chain: B2 chain with N121P
modifications: N-glycans as made in 293F cells (N1168, N1303, N1319 by MS, Table 2)
notes: also called CUB7,8 N1285P mutant; source: 293F cells, purified as the other cubilin proteins (Ni-NTA Superflow, gel filtration)
B4: rat serum albumin (RSA) (natural protein, UniProt P02770 25-608, looked up)
chain: EAHKSEIAHRFKDLGEQHFKGLVLIAFSQYLQKCPYEEHIKLVQEVTDFAKTCVADENAENCDKSIHTLFGDKLCAIPKLRDNYGELADCCAKQEPERNECFLQHKDDNPNLPPFQRPEAEAMCTSFQENPTSFLGHYLHEVARRHPYFYAPELLYYAEKYNEVLTQCCTESDKAACLTPKLDAVKEKALVAAVRQRMKCSSMQRFGERAFKAWAVARMSQRFPNAEFAEITKLATDVTKINKECCHGDLLECADDRAELAKYMCENQATISSKLQACCDKPVLQKSQCLAEIEHDNIPADLPSIAADFVEDKEVCKNYAEAKDVFLGTFLYEYSRRHPDYSVSLLLRLAKKYEATLEKCCAEGDPPACYGTVLAEFQPLVEEPKNLVKTNCELYEKLGEYGFQNAVLVRYTQKAPQVSTPTLVEAARNLGRVGTKCCTLPEAQRLPCVEDYLSAILNRLCVLHEKTPVSEKVTKCCSGSLVERRPCFSALTVDETYVPKEFKAETFTFHSDICTLPDKEKQIKKQTALAELVKHKPKATEDQLKTVMGDFAQFVDKCCKAADKDNCFATEGPNLVARSKEALA
modifications: in MST: Texas Red-X succinimidyl ester or Oregon Green 488-X succinimidyl ester conjugate, dye:protein molar ratio 1:1
notes: serum albumin, rat, UniprotKB P02770; Labelled with dye in MST; also called rat albumin; source: bought: Sigma

Data set [1] has as its target B4. Briefly: MST; Monolith NT.115, standard capillaries, 25 °C, 67 mM NaPO4, 150 mM NaCl, 0.05% Tween 20, pH 7.4 + 1 mM CaCl2; albumin labelled with a fluorescent dye (1:1), cubilin domain unlabelled.
Data set [2] deals with Albumin (Rattus norvegicus) (UniProt P02770). The conditions noted are these: cited from earlier work.
The target in data set [3] is RSA 200 mM glucose (RSA200G) (rat) (UniProt P02770). Briefly: MST; Monolith NT.115, standard capillaries, 25 °C, 67 mM NaPO4, 150 mM NaCl, 0.05% Tween 20, pH 7.4 + 1 mM CaCl2; albumin labelled with a fluorescent dye (1:1), cubilin domain unlabelled.
Data set [4] concerns the target RSA 1 mM methylglyoxal (RSA1MGO) (rat) (UniProt P02770). The description is as above.
In data set [5] the target is RSA 5 mM methylglyoxal (RSA5MGO) (rat) (UniProt P02770). Described as above.
The target in data set [6] is RSA 20 mM glucose (RSA20G) (rat) (UniProt P02770). The data set is described as above.
Data set [7] has as its target RSA 500 mM glucose (RSA500G) (rat) (UniProt P02770). Described as above.
For the next data set, the target named is T1, human albumin (human, UniProt P02768 25-609, fluorescent dye conjugate for MST (Texas Red-X or Oregon Green 488-X succinimidyl ester)).
T1 construct: albumin, human
T1 sequence (P02768 25-609): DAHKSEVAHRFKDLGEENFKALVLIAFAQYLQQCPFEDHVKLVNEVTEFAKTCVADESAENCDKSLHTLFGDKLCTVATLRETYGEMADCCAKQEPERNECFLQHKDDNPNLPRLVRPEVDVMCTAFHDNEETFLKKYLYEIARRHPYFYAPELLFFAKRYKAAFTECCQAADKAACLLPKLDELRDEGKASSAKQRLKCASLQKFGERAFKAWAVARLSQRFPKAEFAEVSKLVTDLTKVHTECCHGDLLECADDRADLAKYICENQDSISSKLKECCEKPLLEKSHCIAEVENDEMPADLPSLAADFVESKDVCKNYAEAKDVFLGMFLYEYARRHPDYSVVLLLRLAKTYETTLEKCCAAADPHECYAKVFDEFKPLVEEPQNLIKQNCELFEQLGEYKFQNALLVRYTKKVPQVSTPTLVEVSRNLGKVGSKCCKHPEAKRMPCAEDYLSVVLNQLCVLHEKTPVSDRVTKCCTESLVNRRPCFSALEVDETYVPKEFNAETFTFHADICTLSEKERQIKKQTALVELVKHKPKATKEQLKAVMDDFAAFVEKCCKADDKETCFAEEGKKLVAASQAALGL
Described as above. The conditions noted are these: both partners purified.

The target in another data set is T2, bovine albumin (bovine, UniProt P02769 25-607, fluorescent dye conjugate for MST (Texas Red-X or Oregon Green 488-X succinimidyl ester)).
T2 construct: albumin, bovine
T2 sequence (P02769 25-607): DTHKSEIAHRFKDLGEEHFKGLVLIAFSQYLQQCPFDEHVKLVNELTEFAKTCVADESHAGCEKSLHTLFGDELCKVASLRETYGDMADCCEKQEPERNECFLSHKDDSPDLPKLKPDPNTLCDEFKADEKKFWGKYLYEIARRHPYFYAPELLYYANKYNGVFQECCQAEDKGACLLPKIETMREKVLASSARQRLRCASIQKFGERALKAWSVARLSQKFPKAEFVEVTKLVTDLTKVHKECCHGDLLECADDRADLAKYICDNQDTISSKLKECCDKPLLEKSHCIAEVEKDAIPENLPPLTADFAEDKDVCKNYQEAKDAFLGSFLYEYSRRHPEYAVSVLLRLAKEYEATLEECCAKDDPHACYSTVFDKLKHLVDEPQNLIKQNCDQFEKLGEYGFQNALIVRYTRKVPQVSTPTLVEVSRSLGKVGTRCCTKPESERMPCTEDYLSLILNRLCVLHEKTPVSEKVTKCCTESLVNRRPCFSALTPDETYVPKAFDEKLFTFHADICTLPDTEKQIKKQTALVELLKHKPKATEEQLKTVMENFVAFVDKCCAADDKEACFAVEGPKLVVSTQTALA
Described as above. The following applies: both partners purified.

Another data set has as its target T3, rabbit albumin (rabbit, UniProt P49065 25-608, fluorescent dye conjugate for MST (Texas Red-X or Oregon Green 488-X succinimidyl ester)).
T3 construct: albumin, rabbit
The description is as above. The following applies: both partners purified.

The target in data set [8] is B4. Briefly: MST; as a1 but at pH 5.0 (buffer not told); albumin labelled.
Data set [9] has as its target B4. The data set can be described thus: MST; as a1 but at pH 6.0; albumin labelled.
Data set [10] concerns the molecule itself. Briefly: SEC-MALS; data not shown; CUB7,8N1285P. Background: Size exclusion chromatography separates by hydrodynamic size, large species first.
Data set [11] deals with the molecule itself. The data set can be described thus: SEC-MALS; Agilent Infinity II HPLC with Wyatt DAWN HELEOS II and Optilab T-rEX, 25 °C, running buffer with 2% v/v glycerol; cubilin domains not treated with any glycosidase.

T3 sequence (P49065 25-608): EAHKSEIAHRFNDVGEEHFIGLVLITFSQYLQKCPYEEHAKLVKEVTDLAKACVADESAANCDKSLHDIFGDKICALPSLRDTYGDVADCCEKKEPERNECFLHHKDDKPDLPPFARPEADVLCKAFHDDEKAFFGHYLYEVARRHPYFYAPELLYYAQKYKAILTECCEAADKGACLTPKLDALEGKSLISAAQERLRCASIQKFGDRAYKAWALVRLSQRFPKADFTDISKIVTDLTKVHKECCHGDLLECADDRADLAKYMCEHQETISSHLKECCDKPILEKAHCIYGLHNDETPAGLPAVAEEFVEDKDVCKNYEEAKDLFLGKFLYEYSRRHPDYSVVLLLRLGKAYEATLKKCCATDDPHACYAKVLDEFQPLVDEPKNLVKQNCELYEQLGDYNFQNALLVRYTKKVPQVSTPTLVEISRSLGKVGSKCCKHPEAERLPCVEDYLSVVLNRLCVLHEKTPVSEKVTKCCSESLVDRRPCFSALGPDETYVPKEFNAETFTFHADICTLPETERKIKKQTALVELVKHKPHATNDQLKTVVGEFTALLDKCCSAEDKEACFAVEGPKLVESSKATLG

The term Kd denotes a measure of binding affinity in units of concentration. With “CUB7,8 (cubilin 7,8 domain), glycosylated, not treated with PNGaseF (from UniProt O70244 1165-1389) (domain or fragment)”, in the data set with rat serum albumin (RSA) [1], the Kd is over 100 µM.
As for Cubilin (from UniProt O70244), the Kd in data set [2] is 630 nM.
“PNGaseF-deglycosylated CUB6–8 (domain or fragment)”: the Kd with rat serum albumin (RSA) [1] is 500 to 1000 µM; in the data set with rat serum albumin (RSA) [1] (record 2), 0.5 to 1 µM and 1 µM; in data set [3], 9.4 µM; in [4] it was 28 µM; in data set [5], over 100 µM; in data set [6] it was 2 mM. In addition, the Kd in data set [7] is over 100 µM.
Consider B1, for which the Kd with rat serum albumin (RSA) [1] (both partners purified) is over 100 µM.
As for B2, the Kd was 0.5 to 1.2 µM in the data set with rat serum albumin (RSA) [1]; 500 to 1000 µM with rat serum albumin (RSA) [1] (record 2); 950 to 1500 nM with human albumin; over 100 µM with bovine albumin; 900 to 1400 nM with rabbit albumin; 1.4 mM in the data set with rat serum albumin (RSA) [8]. The dissociation constant Kd with rat serum albumin (RSA) [9] was 1.7 mM; in data set [3] it was 25.6 µM; in data set [4], 35 µM; in data set [5] it was over 100 µM; in data set [6], 2.5 mM; in data set [7], over 100 µM.
What is called stoichiometry N is the number of molecules, sites or subunits per partner or assembly. In the case of B3, the “stoichiometry N” value in data set [10] was 2.
Regarding B4, the “stoichiometry N” value in data set [11] worked out at 2.
